This passage reports fold-change in affinity compared to FNI9-v1.1, KD compared to v1.1 and Kd results from patent US20260184814A1, “BROADLY NE[…] INFLUENZA NEURAMINIDASE” (priority 2022, published 2026).

Residue numbers refer to the chain shown, from its start.

The target in test [1] is N2 A/Tanzania/205/2010 (82-469) S245N S247T (Influenza A virus). Description: SPR (Biacore), NA on anti-Avi chip, 1:1 model; NA code NA-19 (+glyc245). A general note: In SPR one partner is held on a chip, and binding of the other changes the refractive index at the surface.
Test [2] deals with N2 A/South_Australia/34/2019 (82-469) N245S (Influenza A virus). Description: SPR (Biacore), NA on anti-Avi chip, 1:1 model; NA code NA-24 (-glyc245).
Test [3] concerns the target N2 A/Tanzania/205/2010 (82-469) S245N S247T (Influenza A virus). The experiment in a line: SPR; NA-19. On the set-up: unit not given beside the values.
The target of test [4] is N2 A/South_Australia/34/2019 (82-469) N245S (Influenza A virus). Description: SPR; NA-24. The arrangement: unit not given beside the values.
Test [5] concerns the target N2 A/Hong_Kong/2671/2019 (82-469) N245S (Influenza A virus). The experiment in a line: SPR; NA-25. The arrangement: unit not given beside the values.
The target in test [6] is N2 A/Tanzania/205/2010 (82-469) S245N S247T (Influenza A virus). Description: SPR, 1:1 binding; NA-19 "+glyc245".
Test [7] has as its target N2 A/South_Australia/34/2019 (82-469) N245S (Influenza A virus). Description: SPR, 1:1 binding; NA-24 "-glyc245".
Test [8] deals with N2 A/Hong_Kong/2671/2019 (82-469) N245S (Influenza A virus). Description: SPR, 1:1 binding; NA-25 "-glyc245".

B1: FNI9-v4.1 (antibody, V domains shown)
VH: QVHLVQSGAEVKEPGSSVTVSCKASGGSFSNQAISWVRQAPGQGLEWMGGIFPISGTPTSAQRFQGRVTFTADESTTTVYMDLSSLRSDDTAVYYCARAGSDYFNRDLGWENYYFASWGQGTLVTVSS
VL: EIVMTQSPATLSLSSGERATLSCRASRSVSSNLAWYQQKPGQAPRLLIYDASTRATGFSARFAGSGSGTEFTLTISSLQSEDSAIYYCQQYNNWPPWTFGQGTKVEIK
Take B1: the fold-change in affinity compared to FNI9-v1.1 came to 2.47 in test [1] and 1.53 in test [2].

B2: Fab FNI9-v4.1 (Fab, V domains shown)
VH: B1 VH
VL: B1 VL
With B2, the KD compared to v1.1 in test [3] came out at 1.23; in test [4] it was 1.66; in test [5], 1.53. For the same molecule, the Kd in test [6] is 8.31 nM; in test [7] it was 22.8 nM; in test [8], 1.07 nM.

B3: Fab FNI9-v8.1 (Fab, V domains shown)
VH: B1 VH with S28T, S30N
VL: B1 VL
With B3, the KD compared to v1.1 in test [3] turned out to be 0.57; in test [4] it was 0.82; in test [5] it was 0.7. The Kd in test [6] came out at 3.83 nM; in test [7], 11.2 nM; in test [8], 0.49 nM.

B4: FNI9-v8.1 (antibody, V domains shown)
VH: B1 VH with S28T, S30N
VL: B1 VL
Consider B4, for which the fold-change in affinity compared to FNI9-v1.1 in test [1] turned out to be 1.12; in test [2], 0.42.

B5: FNI9-v9.1 (antibody, V domains shown)
VH: B1 VH with S30N, P58A, F70I
VL: B1 VL
On to B5, for which the fold-change in affinity compared to FNI9-v1.1 amounted to 4.59 in test [1] and 0.99 in test [2].

By Kd is commonly meant the equilibrium constant for the complex coming apart.
